This note sets out measurements from patent US20150005534A1.

The target in this assay is CYP97C2 (rice) expressed in E. coli from pRQ-C2 (pCDFDuet-1-CYP97C2) (Rice (O. sativa)). As to the kind of experiment: cell-based or functional assay.

Regarding “CYP97A4 (rice) expressed in E. coli from pRT-A4 (pCOLADuet-1-CYP97A4) (enzyme)”, the lutein, % of total carotenoids in alpha- and beta-carotene accumulating E. coli with co-expressed hydroxylases (% of total carotenoids) came out at 29.

Take “HYD4 (maize) expressed in E. coli from pRQ-H4 (pCOLADuet-1-HYD4) (enzyme)”: the lutein, % of total carotenoids in alpha- and beta-carotene accumulating E. coli with co-expressed hydroxylases (% of total carotenoids) was 1.58.
